According to the supplement of paper PMC9170038:

Test system: MS2 coat protein
Assay: apparent KD of MS2 coat protein; higher = weaker reporter binding
Conditions: Eterna round: R107; input ligand: arginine 13.2 mM
Protocol: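 RNA-MaP round R107: designed RNA switches with theophylline, tryptophan, arginine or FMN aptamers are transcribed on-chip within common flanks. They are titrated with SNAP-549-labelled MS2 coat protein in RNA-MaP buffer (100 mM Tris pH 7.5, 80 mM KCl, 4 mM MgCl2), without ligand or with the indicated ligand. Median apparent KD per design.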

Sequence	apparent KD of MS2 coat protein [nM]
GUGACUUACGGGCGCCAUUUGUAAUAGGAAGGAGCGGCGAAAUAGCCAGGUAGGUCGCCUAUACAUGAGGAUCACCCAUGUCACC [Esatbileor]	46.9

Same assay, conditions: Eterna round: R107; input ligand: none

Sequence	apparent KD of MS2 coat protein [nM]
AGUUGACGAAAGUCAGCAACAUGAUCCGAAGGAGCGGGCGAAAGCCCAGGUAGGUCGCGGACAUGAGGAUCACCCAUGUCUCCUU [MAT - Exclusion Arginine A - Mod of Eli - D12]	73.4
UACAUGAGGAUCACCCAUGUCGGCAGGGAAGGAGCGGCAAUAAAGCCAGGUAGGUCGCCCAUUAGUAUUUAUAAAUAAAUAUCCA [Same State - Arginine A]	90
GGUGGCGUGACGGAUACCAGCCACCGCGGCAACGCAACAUGAGGAUCACCCAUGUUGGGUGGCCCUUGGCAGCUGUCGUGCGGCG [#1 Same State - Theophylline B Attempt #23 (HarryS)]	86.2
AUUUUCGUAGGUUAAAGUUUAGAAACUGAAGGAGCGUGGUAUUACACAGGUAGGUCGCAGAUUUUACAUGAGGAUCACCCAUGUU [JR_ExcArginiA_Sub011]	22
GGGUACAUCGCGGCCGCCACUCAUGUAAAUACCUGAGGAUCACCCUGGUCGAUGGAGACAUCGAAGAGGACCGGGUGAUGUACCG	252
AGCACAUGAGGAUCACCCAUGUGUGGGUACCGAGGACCGGUACGGCCGCCACUCGCAGGACAUGAGGAUCACCCAUGUGCCGCCG [SSTA DOUBLE!!! :-D #7]	30.5
AUAACAUGAGGAUCACCCAUGUAACCUGAAGGAGCGGACGAAAGUCCAGGUAGGUCGCAGGACUCCUUCAACAUGGGAGAGGGAG [SSArg-A #27 NuPack the Brourd]	99
AGAGUCUAGUCGGCCGCCACUCAUGUCCAAAGGACAUGAGGAUCACCCAUGUACCUAAGGUACAUGAGGACCGGGACUGGACUCA [Omei Tryp B SS C v5]	24.4
UUUUUCGCGGGUGAUACCAGCAGAGUUGUACUGGUCUGGUACAUGAGGAUCACCCAUGUUUGCCCUUGGCAGCGCUCGGGAGAAG [#23 Exclusion-TheophyllineB]	19.8
UCACAUGAGGAUCACCCAUGUACAACUGAAGGAGCGAGACAAAACUCAGGUAGGUCGCAGAAUAAACAAUAGCAUACGACAUGGG [Exclusion Arginine A GF 19]	31
UAUCCACAUGAGGAUCACCCAUGUAGGGAAGGAGCGGUGGUUGCACCAGGUAGGUCGCCUUGCUGAGGAUAACCGGUGGAAUCGU [Exclusion - Arginine A (Freestyle 28)]	18.8
AUUCAUGAAAACAUGACAUAGGGAUCACUCCGAGGACCGGUACGGCCGCCACUCGCGAGGAGGCACAUGAGGAUCACCCAUGUUA [SS Tryp A #3]	115
GGACUAACCAGAAGGAGCGACACGCAGAAACUGCAAUUUCCUCUACACGAGGAUCACCCGUGUCAGGUAGGUCGCUGGUUAGUCG	53.1
GCACGACAUGAGGAUCACCCAUGUGCCGAUACCAGCCGGAUAUACGGCCCUUGGCAGCGGAGUGGAUCCGGAGGACCAUGGGUAA [Same State Theophylline A GF7]	236
AUAACUGCCAAGGAUCAUGGGUGAGCAGAUACCAGCUAGGAAACUAGCCCUUGGCAGCUGCAACAUGAGGAUCACCCAUGUAAUA [(T)'-(M)'-(T1)-(T2)-(M1)-(M2)_Design8]	147
AAAUAAAUACAUGAGGAUCACCCAUGUGAAGGAGCGCGCGUUAGCGCAGGUAGGUCGCACAUGAACUCCAAAGUGCGAAAGCACA [MAT - Exclusion Arginine A - Mod of Eli - D9]	20
GUGACUUACGGGCGCCAUUUGUAAUAGGAAGGAGCGGCGAAAUAGCCAGGUAGGUCGCCUAUACAUGAGGAUCACCCAUGUCACC [Esatbileor]	91.9

Same assay, conditions: Eterna round: R107; input ligand: theophylline 20 uM

Sequence	apparent KD of MS2 coat protein [nM]
AGUUGACGAAAGUCAGCAACAUGAUCCGAAGGAGCGGGCGAAAGCCCAGGUAGGUCGCGGACAUGAGGAUCACCCAUGUCUCCUU [MAT - Exclusion Arginine A - Mod of Eli - D12]	78.8
AGUGUUAUAACUGAUACCAGACCUUUGCUUAUACAUGAGGAUCACCCAUGUAAAAUGGCGGUCCCUUGGCAGCAGAGAAUACGCA [#09 Same State - Theophylline B]	57
UAAAUACAUGAGGAUCACCCAUGUUUGGAUACCAGAUAUGACAUUAUCCCUUGGCAGCCAUUCGUUCCAAAUGCUAUUGUGAAGG [theeternabot_sameState_MS2_Theo_A_26]	30.8
UAAUAAGUGCCGGUUCUCAGAUCCUCAUGUCGAGGACCGGUACGGCCGCCACUCGAAACAUGAGGAUCACCCAUGUAAUAAUAAU [#08 Exclusion Tryptophan A]	105
UACAUGAGGAUCACCCAUGUCGGCAGGGAAGGAGCGGCAAUAAAGCCAGGUAGGUCGCCCAUUAGUAUUUAUAAAUAAAUAUCCA [Same State - Arginine A]	74.4
GGUGGCGUGACGGAUACCAGCCACCGCGGCAACGCAACAUGAGGAUCACCCAUGUUGGGUGGCCCUUGGCAGCUGUCGUGCGGCG [#1 Same State - Theophylline B Attempt #23 (HarryS)]	79.3
UUAUAAGUACCGGUCCUCAGAUCCUCAUGACGAGGACCGGUACGGCCGCCACUCGAAACAUGAGGAUCACCCAUGUAAUAAUACU [Brourdmod08]	34.5
UGAGAACAUGUCUUUAAGUUUACCUCUGAUACCAGAUUGAAAGGCAUCCCUUGGCAGCAGCAUACAUGAGGAUCACCCAUGUCCU [theeternabot_exclusion_MS2_Theo_A_12]	119
CAAACAUGAGGAUCACCCAUGUAAUCAGAUACCAGUGACGAAAGUCACCCUUGGCAGCUGAGUACAUAUUGGCAGAGGUGUUUGA [EThA NP+V+V2 #7]	94.2
CCUCAUGAACAUGAGGAUCACCCAUGUACACGAGGACCGGUACGGCCGCCACUCGAAUAACCUAAAUAUAAAUAAUAAUAAUAGG [5' end split MS2]	20.1
UGUAUGUGAUCUGAUACCAGUCCAACUGGUAAAACAUGAGGAUCACCCAUGUAAAAUUGGGACCCUUGGCAGCAGAUCGCAUACU [ThBS 2]	418
AUUUUCGUAGGUUAAAGUUUAGAAACUGAAGGAGCGUGGUAUUACACAGGUAGGUCGCAGAUUUUACAUGAGGAUCACCCAUGUU [JR_ExcArginiA_Sub011]	25.4
GGGUACAUCGCGGCCGCCACUCAUGUAAAUACCUGAGGAUCACCCUGGUCGAUGGAGACAUCGAAGAGGACCGGGUGAUGUACCG	371
ACAACAUGAGGCGAUACCAGAGGCAACAUGAGGAUCACCCAUGUUCACCCAUGUGAUCACCUCCCUUGGCAGCGCACAUGAGGAU [Same State - Theophylline B #1]	17
AGCACAUGAGGAUCACCCAUGUGUGGGUACCGAGGACCGGUACGGCCGCCACUCGCAGGACAUGAGGAUCACCCAUGUGCCGCCG [SSTA DOUBLE!!! :-D #7]	33.2
ACAUGAGGAUCACCCAUGUUCCUCAUUGAUACCAGUGAAUUUAGACGCCCUUGGCAGCGAGUUUUUUUAUAAGUUUUUUUUUUUU [6.J]	913
AUAACAUGAGGAUCACCCAUGUAACCUGAAGGAGCGGACGAAAGUCCAGGUAGGUCGCAGGACUCCUUCAACAUGGGAGAGGGAG [SSArg-A #27 NuPack the Brourd]	131
AAUAAGUACUUUGAUACCAGCCUGCCAUCAUGCUAAUUUACAUGAGGAUCACCCAUGUUAGGCCCUUGGCAGCAAAGUGCAAUAA [XTheo B #1]	15.8
